Experimental data reported in patent US20190248902A1 (published 2019).

T1: recombinant, soluble human ASGR-1 (human, UniProt P07306 62-291)
T1 construct: biotinylated in the binning assay; also called soluble huASGR-1; Soluble ASGR-1 (Amgen)
T1 sequence: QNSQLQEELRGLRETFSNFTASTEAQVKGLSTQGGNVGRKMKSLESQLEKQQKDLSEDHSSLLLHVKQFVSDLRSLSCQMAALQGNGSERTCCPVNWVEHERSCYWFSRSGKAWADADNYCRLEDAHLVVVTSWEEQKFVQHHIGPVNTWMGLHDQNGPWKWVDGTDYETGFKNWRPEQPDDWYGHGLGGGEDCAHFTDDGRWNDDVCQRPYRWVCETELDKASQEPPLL


What was measured:
[1] = molecular target: T1, recombinant, soluble human ASGR-1; assay: Octet BLI dissociation, pH 5.6 plus calcium
Summary of the method: (§1)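 Antibodies were captured on anti-human Fc biosensors, and soluble ASGR-1 (6 ug/ml) was associated for 2 min in Tris buffer containing 1 mM CaCl2 at pH 7.4, followed by 10 min dissociation under each test condition. The signal at the end of association was set as 100%. Percent ASGR-1 still bound after 1 min of dissociation was compared with the pH 7.4 plus calcium control, and >10% extra dissociation was scored as sensitive.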

[2] = molecular target: T1, recombinant, soluble human ASGR-1; assay: Octet BLI dissociation, pH 5.6 minus calcium
Summary of the method: as §1

[3] = molecular target: T1, recombinant, soluble human ASGR-1; assay: Octet BLI dissociation, pH 7.4 minus calcium
Summary of the method: as §1

| Binder | % Change Compared to pH 7.4 + Calcium [1] | % Change Compared to pH 7.4 + Calcium [2] | % Change Compared to pH 7.4 + Calcium [3] |
| --- | --- | --- | --- |
| 7F4 (antibody, V domains shown, hybridoma mAb) VH: QLQLQESGPGLVKPSETLSLTCTVSGGSISRSSYYWGWIRQPPGKGLEWIGNIYYSGATYYNPSLKSRVTISVDTSTNQFSLKLSSVTAADTAVYYCARHSGSWSLDYWGQGTLVTVSS VL: DIQMTQSPSSLSASVGDRVTITCRTSQGIRNDLGWYQQKPGKAPKRLIYAASNLQSGVPSRFSGSGSGTEFTLTISSLQPEDFATYYCLQHSAYPLTFGGGTKVEIK | 6% | 9% | 4% |
| 9G9 (antibody, V domains shown, hybridoma mAb) VH: not shown VL: QSVLTQPPSASGTPGQRVNMSCSGTNSNIGSYTVNWYQQLPGTAPKLLIYINNQRPSGVPDRFSGSKSGTSASLAISGLQSEDEADYYCAAWDDSLNGHVVFGGRTKLTVL | 38% | 55% | 25% |
| 147D10 (antibody, V domains shown, hybridoma mAb) VH: EVQLLESGGGLVQPGGSLRLSCAASGFTFSSYAMSWVRQAPGKGLEWVSAISGRGGNTFYADSVKGRFTISRDNSKNTLYLQMNSLRAEDTAVYYCAKKDYDYVWGSPYFDYWGQGTLVTVSS VL: DIQMTQSPASVSASVGDRVTITCRASQNISNWLTWYQQKPGKAPKLLIYAASSLQSGVPSRFSGSGSGTDFTLSISSLQPEDFATYYCQQTDSFPFTFGPGTKVDVK | 4% | 11% | 13% |
| 149F8 (antibody, V domains shown, hybridoma mAb) VH: EVQLLESGGGLVQPGGSLRLSCAASGFTFSSYAMSWVRQAPGKGLEWVSAISGRGGNTFYADSVKGRFTISRDNSKNTLYLQMNSLRAEDTAVYYCAKKDYDYVWGSPYFDYWGQGTLVTVSS VL: DIQMTQSPASVSASVGDRVTITCRASQGISNWLAWYQQKPGKAPKLLIYAASSLQSGVPSRFSGNESGTDFTLSISSLQPEDFAIYYCQQTDSFPFTFGPGTKVDVK | -8% | -1% | 1% |
| 149D11 (antibody, V domains shown, hybridoma mAb) VH: EVQLLESGGGLVQPGGSLRLSCAASGFTFSSYAMSWVRQAPGKGLEWVSAISGRGGNTFYADSVKGRFTISRDNSKNTLYRQMNSLRAEDTAVYYCAKKDYDYVWGSPYFDYWGQGTLVTVSS VL: DIQMTQSPASVSASVGDRVTITCRASQNISNWLTWYQQKPGKAPKLLIYAASSLQSGVPSRFSGSGSGTDFTLSISSLQPEDFATYYCQQTDSFPFTFGPGTKVDVK | 3% | 11% | 11% |
| 48B12 (antibody, V domains shown, hybridoma mAb) VH: EVQLLESGGGLVQPGGSLRLSCAASGFTFSSYAMNWVRQAPGKGLEWVSAISGRGGNTFYADSVKGRFTISRDNSKNTLYLQMNSLRAEDTAVYYCAKRETYNWNYEGFDYWGQGTLVTVSS VL: SYELTQPPSVSVSPGQTARITCSGDALPKKYAYWYQQKSGQAPVLVIYEDSKRPSGIPERFSGSSSGTMATLTISGAQVEDEADYYCNSTDSSGNHVVFGGGTKLTVL | -6% | 0% | 4% |
| 194A4 (antibody, V domains shown, hybridoma mAb) VH: QVQLVQSGTEVKKPGASLKVSCKASGYTFTVYYLNWVRQAPGQGLEWMGWINPNSGGTNYAQKFQGRVTMTRDTSISTAYMELSRLRSDDTAVYYCARGYDILTGWGQGTLVTVSS VL: EIVLTQSPGTLSLSPGERATLSCRASRGVSNIYLAWYQQKPGQAPRLLIYGASNRATGIPDRFSGSGSGTDFTLTISRLEPEDFAVYYCQHNDYSMFTFGPGTKVDIK | -7% | -3% | -1% |
| 6G7 (antibody, V domains shown, hybridoma mAb) VH: QVQLVESGGGVVQPGRSLRLSCAASGFTFSSYGMHWVRQTPGKGLEWVAIISYVGKNKYYADSVKGRFTISRDNSKNTLYLQMNSLRAEDTAVYYCARRGNSYGGYGMDVWGQGTTVTVSS VL: DIQMTQSPSSRSASVGDRVTITCQASQDISNYLNWCQQKPGKALKLLIYDASTLETGVPSRFSGSGSGTDFTFTISSVQPEDIATYYCQQYDNVPITFGQGTRLEIK | 4% | 16% | 8% |
| 147E9 (antibody, V domains shown, hybridoma mAb) VH: EVQLVESGGGLVQPGGSLRLSCAASGFTFSSYSMNWVRQAPGKGLEWVSSISGRNTTIYYADSVKGRFTISRDNAKNSLYLQMNSLRDEDTAVYYCSRDRGSCWGQGTLVTVSS VL: DIQMTQSPSSLSASVGDRVTITCRASQDINNYLAWFQQKPGKAPKSLIVAASSLQSGVPSKFSGSGSGTDFTLTISSLQPEDFATYYCQQYNSYPLTFGGGTKVEIK | -4% | 20% | 5% |
| 208A2 (antibody, V domains shown, hybridoma mAb) VH: QVQLQESGPGLVKPSETLSLNCTVSGGSIRSYYWSWIRQPAGKGLEWIGRIYTSGSTDYNPSLKSRITMSVDTSKNQFSLKLSSVTAADTAVYYCARGFGDWDYWGQGTLVTVSS VL: DIQMTQSPSSLSASVGDRVTITCRTSQGIRNDLGWYQQQPGKTPKRLIYAASSLLSGVPSRFSGSRSGTDFTLTISSLQPEDFATYYCLQYNSYPPTFGQGTRLEIK | -10% | -5% | -4% |
| 210G10 (antibody, V domains shown, hybridoma mAb) VH: QVQLQESGPGLVKPSETLSLNCTVSGGSIRSYYWSWIRQPAGKGLEWIGRIYTSGSTDYNPSLKSRITMSVDTSKNQFSLKLSSVTAADTAVYYCARGFGDWDYWGQGTLVTVSS VL: DIQMTQSPSSLSASVGDRVTITFRTSQGIRNDLGWYQQQPGKTPKRMIYAASSLFSGVPSRFSGSRSGTDFTLTISSLQPEDFATYYCLQYNSYPPTFGQGTRLEIK | -10% | -5% | -3% |
| 184E7 (antibody, V domains shown, hybridoma mAb) VH: QVQLVQSGAEVKTPGASVKVSCRASGYTFTSYNMHWVRQVPGQGLEWMGWINPNNGGSNYTQKFQGRVTMTRDTSISTAYMELSRLRSDDTAVYYCARKFGDWGQGTLVTVSS VL: DIQMTQSPSSRSASIGERVTITCRASQGISNYLAWIQQKPGTAPKSLIYAASSLQSGVSSRFSGSGFGTDFTITISSVQREDFATYYCQQYNGYPFTFGHGTKVDIK | -9% | -3% | 1% |
| 62H10 (antibody, V domains shown, hybridoma mAb) VH: EVQLVESGGGLVKPGGSLRLSCAASGFTFSSYSMNWVRQAPGKGLEWVSSISSSSSYIYYADSVKGRFTISRDNAKNSLYLQMNSLRAEDTAVYYCARGGSRGFDPWGQGTLVTVSS VL: DIQMTQSPSSLSASVGDRVTITCRASQSITSYLNWYQQKPGKVPKLLISTASSLQSGVPSRFSGSGSGTDFTLTISSLQPEDFATYYCQQSHSFPFTFGPGTNVDFK | -2% | 14% | 13% |
| 52H2 (antibody, V domains shown, hybridoma mAb) VH: EVQLLESGGGLVQPGGSLRLSCAASGFTFSRNAMSWVRQAPGMGLEWVSAISGRGGNTFYADSVKGRFTVSRDNSKNTLFLQMNSLRAEDTAVYYCAKNGREQWLDYWGQGTLVTVSS VL: DIQMTQSPSSVSASVGDRVTITCRASQNITNWLAWFQQKPGRAPKLLIYTTSSLQSGVPSRFSGSGSGTDFTLTISSLQPEDFATYCCQQTNSFPWTFGHGTKVEVK | 11% | 32% | 26% |
| 4B1 (antibody, V domains shown, hybridoma mAb) VH: QVQLQESGPGLVKPSETLSLTCSVSGDSISSYSWSWIRQPAGKGLEWIGRIYTSGSTNYIPSLKSRITMSVDTSKKQFSLKLSSVTAADTAVYYCARDLKSSGCLFFDYWGQGTLVTVSS VL: DIQMTQSPSSLSASVGDRVTITCRASHTIRTYLNWYQQKPGKAPKLLIYAASSLQSGVPSRINGSGSGTDFTLTITNLQPEDFATYYCQQSYNISFTFGPGTKVDIK | -5% | -2% | 6% |
| 72F5 (antibody, V domains shown, hybridoma mAb) VH: EVQLLESGGGLVQPGGSLRLSCAASGFTFSSYAMIWVRQAPGKGLEWVSTISGSGGYTYSADSVKGRFTISRDNSKNTLYLQMNSLRAEDTAVYYCARRIAVTGTEWYDPWGQGTLVTVSS VL: DIQMTQSPSSLSASVGDRVIIPCRASQNISSYLNWYQQKPGKAPKLLIYAASSLQSGVPSRFSGSGSGTDFTLTISSLQPEDFATYSCQQTYSTPTFGQGTRLDIN | 20% | 30% | 64% |
| 64G12 (antibody, V domains shown, hybridoma mAb) VH: EVQLLESGGGLVQPGGSLRLSCAASGFTFSSNAMSWVRQAPGKGLEWVSVISGSGGSTYYADSVKGRFTISRDNSKNTLYLQMNSLRAEDTALYYCAKRNYDDAFDIWGQGTMVTVSS VL: DIQMTQSPSSVSASVGDRVTITCRASQNITTWLAWYQQKPGKAPKLLISAASSLQSGVPSRFSGSGSGTDFTLTISSLQPEDFATYICQQANSFPFTFGPGTKLDIK | 10% | 24% | 24% |
